The source of these data is patent US20240174720A1.

In assay [1] the target is Purified human IgG (injectable IVIG) (human). In words: dynamic binding capacity at 10% breakthrough after 35 h in 0.5 M NaOH; ligand on agarose column; human IgG 2.5 mg/ml.
Assay [2] shares this target. The assay is described as follows: dynamic binding capacity at 10% breakthrough; ligand on agarose in 1 ml column; human IgG 2.5 mg/ml; 4 min residence time.
Assay [3] shares this target. The assay is described as follows: DBC after 0.5 M NaOH soaking relative to DBC before soaking; agarose column; human IgG.
The target is the same in assay [4]. The assay is described as follows: dynamic binding capacity at 10% breakthrough after 24 h in 0.5 M NaOH; ligand on agarose column; human IgG 2.5 mg/ml.

“Z domain with N52V mutation Ig-binding affinity ligand (designed binder)” returned a DBC after 35 h soaking in assay [1] of 41 mg/mL. In assay [2], this substance registered a DBC before NaOH soaking of 63 mg/mL. The substance further had a Percentage of remaining DBC in assay [3] of 65.1%. In addition, the DBC after 24 h soaking in assay [4] turned out to be 52 mg/mL.
As to “Z domain with S41A/N52V mutations Ig-binding affinity ligand (designed binder)”, the DBC after 35 h soaking in assay [1] was found to be 53 mg/mL. In assay [2], this substance yielded a DBC before NaOH soaking of 65 mg/mL. This substance also showed a Percentage of remaining DBC in assay [3] of 81.5%. Also, the DBC after 24 h soaking in assay [4] worked out at 59 mg/mL.
On the same counts, the results for “Z domain with S41A/N52L mutations Ig-binding affinity ligand (designed binder)” are 42 mg/mL, 59 mg/mL, 71.2% and 50 mg/mL.
Consider “Z domain with S41A mutation Ig-binding affinity ligand (designed binder)”, for which the DBC after 35 h soaking in assay [1] came out at 44 mg/mL. The substance also displayed a DBC before NaOH soaking in assay [2] of 62 mg/mL. Also, in assay [3], the Percentage of remaining DBC is 70.9%. The DBC after 24 h soaking in assay [4] was 52 mg/mL.
On the same counts, the results for “Z domain with S41V/N52V mutations Ig-binding affinity ligand (designed binder)” are 49 mg/mL, 64 mg/mL, 76.5% and 56 mg/mL.
For “Z domain with N52L mutation Ig-binding affinity ligand (designed binder)”, in assay [1], the DBC after 35 h soaking worked out at 39 mg/mL. This substance also yielded a DBC before NaOH soaking in assay [2] of 58 mg/mL. Besides, in assay [3], the Percentage of remaining DBC amounted to 67.2%. This substance showed a DBC after 24 h soaking in assay [4] of 47 mg/mL.
On to “Z domain with S41V mutation Ig-binding affinity ligand (designed binder)”, for which the DBC after 35 h soaking in assay [1] was determined as 43 mg/mL. In addition, the DBC before NaOH soaking in assay [2] is 65 mg/mL. Also, the Percentage of remaining DBC in assay [3] amounted to 66.1%. The substance further had a DBC after 24 h soaking in assay [4] of 53 mg/mL.
